Data as given in article PMC6757106, “Prokaryotic soluble overexpression and purification of oncostatin M using a fusion approach and genetically engineered E. coli strains” (Scientific Reports, 2019).

B1: Human Oncostatin M (OSM), tag-free, purified from the MBP-OSM fusion expressed in BL21(DE3) (ligand, UniProt P13725 26-221, looked up)
chain: AAIGSCSKEYRVLLGQLQKQTDLMQDTSRLLDPYIRIQGLDVPKLREHCRERPGAFPSEETLRGLGRRGFLQTLNATLGCVLHRLADLEQRLPKAQDLERSGLNIEDLEKLQMARPNILGLRNNIYCMAQLLDNSDTAEPTKAGRGASQPPTPTPASDAFQRKLEGCRFLHGYHRFMHSVGRVFSKWGESPNRSRR
notes: Oncostatin M, human; Tag removed with TEV protease at ENLYFQ/G; surmised); Printed size 22.05 kDa; also called MBP fusion-derived OSM; OSM purified from MBP-OSM; source: E. coli BL21(DE3), 18 °C, purified (IMAC, TEV protease cleavage, second IMAC); not shown: His6, N-terminal, cleaved; MBP, N-terminal, cleaved
B2: Human Oncostatin M (OSM), tag-free, purified from the His6-OSM fusion expressed in Origami 2 (ligand, UniProt P13725 26-221, looked up)
chain: B1 chain
notes: Oncostatin M, human; Tag removed with TEV protease at ENLYFQ/G; a glycine probably stays at the N-terminus (surmised from the cysteine numbering); Printed size 22.05 kDa; also called His6 fusion-derived OSM; OSM purified from His-OSM; source: E. coli Origami 2(DE3), 18 °C, purified (IMAC with 2 M urea, TEV protease cleavage, second IMAC); not shown: His6, N-terminal, cleaved

Legend:
[1] = biological target: the molecule itself; test: non-reducing SDS-PAGE; final purified tag-free OSM run on 10% tricine SDS-PAGE under reducing and non-reducing conditions, Coomassie stained
[2] = biological target: the molecule itself; test: SEC; HiLoad 16/600 Superdex 75 pg, 1x PBS pH 7.4, 1 mL/min; final proteins after tag cleavage

| Protein | binding result [1] | binding result [2] |
| --- | --- | --- |
| B1 | binds |  |
| B2 |  | binds |
